T1: B7H3 (CD276) (human, UniProt Q5ZPR3 29-534)
T1 construct: whole, on cells
T1 sequence (looked up): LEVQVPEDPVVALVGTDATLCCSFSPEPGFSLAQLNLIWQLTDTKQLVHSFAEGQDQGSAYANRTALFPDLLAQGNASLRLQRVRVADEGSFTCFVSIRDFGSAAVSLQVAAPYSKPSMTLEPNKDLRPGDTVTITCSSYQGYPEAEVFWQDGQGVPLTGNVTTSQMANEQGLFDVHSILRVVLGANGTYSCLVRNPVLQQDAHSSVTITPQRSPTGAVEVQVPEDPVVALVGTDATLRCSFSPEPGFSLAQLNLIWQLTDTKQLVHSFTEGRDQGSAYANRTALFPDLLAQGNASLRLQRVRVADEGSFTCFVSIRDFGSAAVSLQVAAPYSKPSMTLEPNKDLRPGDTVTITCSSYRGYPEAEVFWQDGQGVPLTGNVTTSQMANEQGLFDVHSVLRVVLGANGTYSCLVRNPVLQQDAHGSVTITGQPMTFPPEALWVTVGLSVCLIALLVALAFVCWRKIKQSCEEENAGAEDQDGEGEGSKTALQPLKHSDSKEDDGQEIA


Legend:
[1] = biological target: T2, CD3 on the surface of primary T cells (human, UniProt P07766 23-207); assay: flow cytometry on isolated primary human T cells
T2 construct: whole, on cells; CD3 is a multimeric complex (ε, γ, δ, ζ chains) with the TCR; In the reporter assays CD3 stood on Jurkat cells; also called CD3ε
Procedure: (§1) Binding of exemplary multispecific constructs containing an antigen-binding domain directed against B7H3 were assessed for binding to B7H3 positive A375 tumor cells or primary T-cells. The constructs were generated containing antigen-binding domain(s) that were either sdAbs or a FABs, and that were positioned either only N-terminal to the Fc or both N-terminal to the Fc and C-terminal to the anti-CD3 binding domain (see FIGS. 3A and 3C and Table E1.1). Among the various formats of constructs tested included: sdAb-Fc-dsFV-sdAb (cx3072, cx5952) sdAb-Fc-FV (cx6079), sdAb-Fc-dsFV (cs6080, cx6081), MAB-FV (cx5067) and MAB-dsFV (cx6083, cx6084), where the FV represents the anti-CD3 binding domain composed of VH and VL domain pairs and “ds” notes disulfide stabilized via an engineered interdomain disulfide bond.
(§2) Binding was assessed as described above via flow cytometry using a fluorophore-conjugated anti-human Fc secondary antibody. cx3072 bound to A375 cells with high affinity (FIG. 6A) but not to isolated T-cells (FIG. 6B). […] The B7H3-targeting sdAb containing constructs (cx5952, cx6079, cx6080, and cx6081) bound to B7H3 positive cells with similar affinities (depicted in FIG. 6E), with cx5952 displaying higher maximal binding. cx6079, cx6080 and cx6081 contain two identical B7H3-targeting sdAbs, whereas cx5952, and cx3072 contain two distinct B7H3-targeting sdAb that bind different epitopes. The MAB-FV, cx5067, contains two identical B7H3-targeting FAB domains.

B7H3 (CD276) = biological target: T1, B7H3 (CD276); assay: flow cytometry on A375 cells, anti-human Fc secondary
Procedure: as §1, §2

T2 sequence (P07766 23-207): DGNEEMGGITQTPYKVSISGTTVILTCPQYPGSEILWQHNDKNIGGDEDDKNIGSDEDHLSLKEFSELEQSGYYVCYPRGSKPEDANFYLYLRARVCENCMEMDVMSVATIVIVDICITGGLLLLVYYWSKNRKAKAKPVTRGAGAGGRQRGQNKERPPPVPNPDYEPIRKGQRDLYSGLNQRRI

Binder	binding result [1]	binding result (B7H3 (CD276))
cx5067 (bispecific antibody, Three polypeptides; two identical B7H3 Fab domains; anti-CD3 Fv not disulfide-stabilized; also called MAB-FV; B7H3-targeted constrained CD3 engaging construct (Fab format)) chain 1: EVQLVESGGGLVQPGGSLRLSCAASGFTFSSFGMHWVRQAPGKGLEWVAYISSDSSAIYYADTVKGRFTISRDNAKNSLYLQMNSLRDEDTAVYYCGRGRENIYYGSRLDYWGQGTTVTVSSASTKGPSVFPLAPSSKSTSGGTAALGCLVKDYFPEPVTVSWNSGALTSGVHTFPAVLQSSGLYSLSSVVTVPSSSLGTQTYICNVNHKPSNTKVDKKVEPKSCDKTHTCPPCPAPPVAGPSVFLFPPKPKDTLMISRTPEVTCVVVDVKHEDPEVKFNWYVDGVEVHNAKTKPREEEYNSTYRVVSVLTVLHQDWLNGKEYKCKVSNKALPAPIEKTISKAKGQPREPQVYTLPPSREEMTKNQVSLTCDVSGFYPSDIAVEWESDGQPENNYKTTPPVLDSDGSFFLYSKLTVDKSRWEQGDVFSCSVMHEALHNHYTQKSLSLSPGKGGGGSGGGGSGGGGSEVQLVESGGGLVQPGGSLRLSCAASGFTFSTYAMNWVRQAPGKGLEWVGRIRSKYNNYATYYADSVKGRFTISRDDSKNTLYLQMNSLRAEDTAVYYCVRHGNFGDSYVSWFAYWGQGTLVTVSS chain 2: EVQLVESGGGLVQPGGSLRLSCAASGFTFSSFGMHWVRQAPGKGLEWVAYISSDSSAIYYADTVKGRFTISRDNAKNSLYLQMNSLRDEDTAVYYCGRGRENIYYGSRLDYWGQGTTVTVSSASTKGPSVFPLAPSSKSTSGGTAALGCLVKDYFPEPVTVSWNSGALTSGVHTFPAVLQSSGLYSLSSVVTVPSSSLGTQTYICNVNHKPSNTKVDKKVEPKSCDKTHTCPPCPAPPVAGPSVFLFPPKPKDTLMISRTPEVTCVVVDVKHEDPEVKFNWYVDGVEVHNAKTKPREEQYNSTYRVVSVLTVLHQDWLNGKEYKCKVSNKALPAPIEKTISKAKGQPREPQVYTLPPSREQMTKNQVKLTCLVKGFYPSDIAVEWESNGQPENNYKTTPPVLDSDGSFFLYSKLTVDKSRWQQGNVFSCSVMHEALHNHYTQKSLSLSPGKGGGGSGGGGSGGGGSQAVVTQEPSLTVSPGGTVTLTCGSSTGAVTTSNYANWVQQKPGKSPRGLIGGTNKRAPGVPARFSGSLLGGKAALTISGAQPEDEADYYCALWYSNHWVFGGGTKLTVL light: DIQLTQSPSFLSASVGDRVTITCKASQNVDTNVAWYQQKPGKAPKALIYSASYRYSGVPSRFSGSGSGTDFTLTISSLQPEDFATYYCQQYNNYPFTFGQGTKLEIKRTVAAPSVFIFPPSDEQLKSGTASVVCLLNNFYPREAKVQWKVDNALQSGNSQESVTEQDSKDSTYSLSSTLTLSKADYEKHKVYACEVTHQGLSSPVTKSFNRGEC	no binding	binds
cx6083 (bispecific antibody, Three polypeptides; B7H3 Fab on both Fc chains; anti-CD3 Fv disulfide-stabilized (VH G44C / VL G100C); also called MAB-dsFV; B7H3-targeted constrained CD3 engaging construct (Fab format)) chain 1: EVQLVESGGGLVQPGGSLRLSCAASGFTFSSFGMHWVRQAPGKGLEWVAYISSDSSAIYYADTVKGRFTISRDNAKNSLYLQMNSLRDEDTAVYYCGRGRENIYYGSRLDYWGQGTTVTVSSASTKGPSVFPLAPSSKSTSGGTAALGCLVKDYFPEPVTVSWNSGALTSGVHTFPAVLQSSGLYSLSSVVTVPSSSLGTQTYICNVNHKPSNTKVDKKVEPKSCDKTHTCPPCPAPPVAGPSVFLFPPKPKDTLMISRTPEVTCVVVDVKHEDPEVKFNWYVDGVEVHNAKTKPREEEYNSTYRVVSVLTVLHQDWLNGKEYKCKVSNKALPAPIEKTISKAKGQPREPQVYTLPPSREEMTKNQVSLTCDVSGFYPSDIAVEWESDGQPENNYKTTPPVLDSDGSFFLYSKLTVDKSRWEQGDVFSCSVMHEALHNHYTQKSLSLSPGKGGGGSGGGGSGGGGSEVQLVESGGGLVQPGGSLRLSCAASGFTFSTYAMNWVRQAPGKCLEWVGRIRSKYNNYATYYADSVKGRFTISRDDSKNTLYLQMNSLRAEDTAVYYCVRHGNFGDSYVSWFAYWGQGTLVTVSS chain 2: EVQLVESGGGLVQPGGSLRLSCAASGFTFSSFGMHWVRQAPGKGLEWVAYISSDSSAIYYADTVKGRFTISRDNAKNSLYLQMNSLRDEDTAVYYCGRGRENIYYGSRLDYWGQGTTVTVSSASTKGPSVFPLAPSSKSTSGGTAALGCLVKDYFPEPVTVSWNSGALTSGVHTFPAVLQSSGLYSLSSVVTVPSSSLGTQTYICNVNHKPSNTKVDKKVEPKSCDKTHTCPPCPAPPVAGPSVFLFPPKPKDTLMISRTPEVTCVVVDVKHEDPEVKFNWYVDGVEVHNAKTKPREEQYNSTYRVVSVLTVLHQDWLNGKEYKCKVSNKALPAPIEKTISKAKGQPREPQVYTLPPSREQMTKNQVKLTCLVKGFYPSDIAVEWESNGQPENNYKTTPPVLDSDGSFFLYSKLTVDKSRWQQGNVFSCSVMHEALHNHYTQKSLSLSPGKGGGGSGGGGSGGGGSQAVVTQEPSLTVSPGGTVTLTCGSSTGAVTTSNYANWVQQKPGKSPRGLIGGTNKRAPGVPARFSGSLLGGKAALTISGAQPEDEADYYCALWYSNHWVFGCGTKLTVL light: DIQLTQSPSFLSASVGDRVTITCKASQNVDTNVAWYQQKPGKAPKALIYSASYRYSGVPSRFSGSGSGTDFTLTISSLQPEDFATYYCQQYNNYPFTFGQGTKLEIKRTVAAPSVFIFPPSDEQLKSGTASVVCLLNNFYPREAKVQWKVDNALQSGNSQESVTEQDSKDSTYSLSSTLTLSKADYEKHKVYACEVTHQGLSSPVTKSFNRGEC	no binding	binds
cx6081 (bispecific antibody, Heterodimer of chain 1 and chain 2; anti-CD3 Fv disulfide-stabilized (VH G44C / VL G100C); two identical B7H3 sdAbs, both N-terminal to the Fc; also called cs6081; B7H3-targeting constrained CD3 engaging construct) chain 1: EVQLVESGGGEVQPGGSLRLSCAASGFSFSSNVMMWVRQAPGKGLEWVSTIYSSGTGTFYAESVKGRFTISRDNAKNTLYLQMSSLRPEDTAVYYCATSGPVRGWGPRSQGTLVTVKPPGGGGDKTHTCPPCPAPPVAGPSVFLFPPKPKDTLMISRTPEVTCVVVDVKHEDPEVKFNWYVDGVEVHNAKTKPREEEYNSTYRVVSVLTVLHQDWLNGKEYKCKVSNKALPAPIEKTISKAKGQPREPQVYTLPPSREEMTKNQVSLTCDVSGFYPSDIAVEWESDGQPENNYKTTPPVLDSDGSFFLYSKLTVDKSRWEQGDVFSCSVMHEALHNHYTQKSLSLSPGKGGGGSGGGGSGGGGSEVQLVESGGGLVQPGGSLRLSCAASGFTFNTYAMNWVRQAPGKCLEWVARIRSKYNNYATYYADSVKGRFTISRDDAKNTLYLQMSSLRAEDTAVYYCVRHGNFGNSYVSWFAYWGQGTLVTVKP chain 2: EVQLVESGGGEVQPGGSLRLSCAASGFSFSSNVMMWVRQAPGKGLEWVSTIYSSGTGTFYAESVKGRFTISRDNAKNTLYLQMSSLRPEDTAVYYCATSGPVRGWGPRSQGTLVTVKPPGGGGDKTHTCPPCPAPPVAGPSVFLFPPKPKDTLMISRTPEVTCVVVDVKHEDPEVKFNWYVDGVEVHNAKTKPREEQYNSTYRVVSVLTVLHQDWLNGKEYKCKVSNKALPAPIEKTISKAKGQPREPQVYTLPPSREQMTKNQVKLTCLVKGFYPSDIAVEWESNGQPENNYKTTPPVLDSDGSFFLYSKLTVDKSRWQQGNVFSCSVMHEALHNHYTQKSLSLSPGKGGGGSGGGGSGGGGSQAVVTQEPSLTVSPGGTVTLTCGSSTGAVTTSNYANWVQQKPGQAFRGLIGGTNKRAPGVPARFSGSLLGGKAALTISGAQPEDEADYYCALWYSNHWVFGCGTKLEIK	no binding	binds

— patent US20230295336A1 (INHIBRX, published 2023)
